According to patent publication US20140322225A1:

What was measured:
[1] = molecular target: human recombinant adrenomedullin receptor (CRLR+RAMP3) (human)
[2] = molecular target: ADM (human or mouse, not stated for this control); assay: cell-based or functional assay

Row | EC50 (read off the curve), cAMP formation [1] [nM] | Maximal inhibition of ADM bioactivity (ADM-Bioassay) (%) [2] [%] | Substance
1 | 1 |  | human adrenomedullin (hADM 1-52) (peptide)
2 |  | 0 | Non specific mouse IgG (antibody)
